These results are taken from patent US20140134177A1 (ONCOMED PHARMACEUTICALS, published 2014).

First the molecules themselves.
B1: FZD5-Fc (Fc fusion, UniProt Q13467 27-157, looked up)
chain: ASKAPVCQEITVPMCRGIGYNLTHMPNQFNHDTQDEAGLEVHQFWPLVEIQCSPDLRFFLCSMYTPICLPDYHKPLPPCRSVCERAKAGCSPLMRQYGFAWPERMSCDRLPVLGRDAEVLCMDYNRSEATT
notes: also called FZD1-10-Fc; FZD-Fc constructs; not shown: Fc
B2: RSPO1-CD4TM (ligand)
chain: SRGIKGKRQRRISAEGSQACAKGCELCSEVNGCLKCSPKLFILLERNDIRQVGVCLPSCPPGYFDARNPDMNKCIKCKIEHCEACFSHNFCTKCKEGLYLHKGRCYPACPEGSSAANGTMECSSPAQCEMSEWSPWGPCSKKQQLCGFRRGSEERTRRVLHAPVGDHAACSDTKETRRCTVRRVPCPEGQKRRKGGQGRRENANRNLARKESKEAGAGSRRRKGQQQQQQQGTVGPLTSAGPAMALIVLGGVAGLLLFIGLGIFF
notes: domain: transmembrane domain; also called cell-surface RSPO1; RSPO1 transfected cells
B3: FZD10-Fc (Fc fusion, UniProt Q9ULW2 21-154, looked up)
chain: ISSMDMERPGDGKCQPIEIPMCKDIGYNMTRMPNLMGHENQREAAIQLHEFAPLVEYGCHGHLRFFLCSLYAPMCTEQVSTPIPACRVMCEQARLKCSPIMEQFNFKWPDSLDCRKLPNKNDPNYLCMEAPNNG
notes: also called soluble FZD10; FZD1-10-Fc; not shown: Fc
B4: FZD3-Fc (Fc fusion, UniProt Q9NPG1 23-143, looked up)
chain: HSLFSCEPITLRMCQDLPYNTTFMPNLLNHYDQQTAALAMEPFHPMVNLDCSRDFRPFLCALYAPICMEYGRVTLPCRRLCQRAYSECSKLMEMFGVPWPEDMECSRFPDCDEPYPRLVDL
notes: as for B1
B5: FZD6-Fc (Fc fusion, UniProt O60353 19-146, looked up)
chain: HSLFTCEPITVPRCMKMAYNMTFFPNLMGHYDQSIAAVEMEHFLPLANLECSPNIETFLCKAFVPTCIEQIHVVPPCRKLCEKVYSDCKKLIDTFGIRWPEELECDRLQYCDETVPVTFDPHTEFLGP
notes: as for B1
B6: FZD4-Fc (Fc fusion, UniProt Q9ULV1 40-170, looked up)
chain: EEERRCDPIRISMCQNLGYNVTKMPNLVGHELQTDAELQLTTFTPLIQYGCSSQLQFFLCSVYVPMCTEKINIPIGPCGGMCLSVKRRCEPVLKEFGFAWPESLNCSKFPPQNDHNHMCMEGPGDEEVPLP
notes: as for B1
B7: FZD9-Fc (Fc fusion, UniProt O00144 23-159, looked up)
chain: LEIGRFDPERGRGAAPCQAVEIPMCRGIGYNLTRMPNLLGHTSQGEAAAELAEFAPLVQYGCHSHLRFFLCSLYAPMCTDQVSTPIPACRPMCEQARLRCAPIMEQFNFGWPDSLDCARLPTRNDPHALCMEAPENA
notes: as for B1
B8: FZD8-Fc (Fc fusion, UniProt Q9H461 28-158, looked up)
chain: ASAKELACQEITVPLCKGIGYNYTYMPNQFNHDTQDEAGLEVHQFWPLVEIQCSPDLKFFLCSMYTPICLEDYKKPLPPCRSVCERAKAGCAPLMRQYGFAWPDRMRCDRLPEQGNPDTLCMDYNRTDLTT
notes: also called soluble FZD8; FZD1-10-Fc; not shown: Fc

For the assay “RSPO1-CD4TM”, the target named is B2. As to the kind of experiment: FACS, Fc fusion on HEK 293 cells with RSPO1-CD4TM. The procedure:
(§1) FIG. 7. RSPO1 Activates Beta-Catenin Signaling via Binding to LGR5. A) HEK 293 cells transiently transfected with RSPO1-CD4TM and GFP were incubated with LGR5-Fc, LRP6FL-Fc, LRP6E1-2-Fc, or FZD1-10-Fc as indicated. […] B) HEK 293 cells transiently transfected with […] and GFP were incubated in the presence of heparin with (in duplicate) RSPO1-Fc (top), FZD8-Fc (middle), or a FLAG antibody as a positive control (bottom). […] HEK 293 cells transiently transfected with FLAG-LGR5-CD4TM and GFP were incubated in the presence of heparin with RSPO1-Fc, RSPO2-Fc, RSPO3-Fc, RSPO4-Fc, FZD8-Fc, or a FLAG antibody as a positive control as indicated.
(§2) To determine the mechanism by which RSPO1 activates beta-catenin signaling, FACS analysis was used to assess binding between RSPO1 and LGR5. In certain embodiments, binding between soluble LGR5 and cell-surface RSPO1 was determined. A cell-surface RSPO1 protein was generated by ligating full-length human RSPO1 to the transmembrane domain of CD4 using standard recombinant DNA techniques (RSPO1-CD4TM). HEK 293 cells were transiently transfected RSPO1-CD4TM and GFP. After 48 hours, cells were suspended in ice cold PBS containing 2% FCS and then incubated on ice in the presence of LGR5-Fc, LRP6-ECD-Fc (containing the extracellular domain of human LRP6 fused to an Fc domain), LRP6E1-2-Fc (containing amino acids 1-629 of human LRP6 fused to an Fc domain), or various FZD-Fc constructs, including FZD1-10. […] Only a weak interaction between RSPO1 and the WNT co-receptor LRP6 was detected.

Another assay deals with T1, FZD1-Fc (UniProt Q9UP38 87-237).
T1 construct: also called FZD1-10-Fc; FZD-Fc constructs; not shown: Fc
Briefly: FACS, Fc fusion on HEK 293 cells with RSPO1-CD4TM. The procedure: as §1, §2
(In general: A flow cytometer gives signals particle by particle.)

In another assay the target is FZD2-Fc (UniProt Q14332 24-159). As to the kind of experiment: FACS, Fc fusion on HEK 293 cells with RSPO1-CD4TM. The procedure:
as §1, §2

A further assay deals with FZD7-Fc (UniProt O75084 33-170). As to the kind of experiment: FACS, Fc fusion on HEK 293 cells with RSPO1-CD4TM. The procedure:
as §1, §2

A further assay addresses T2, FLAG-LGR5-CD4TM (human, UniProt P01730 397-418, limits assumed).
T2 construct: domain: transmembrane domain; also called cell-surface LGR5; LGR5 transfected cells; not shown: N-terminal FLAG tag
As to the kind of experiment: FACS, Fc fusion on HEK 293 cells with FLAG-LGR5-CD4TM, with heparin. The procedure: In certain embodiments, binding between soluble RSPO1 and cell-surface LGR5 was determined. A variant cell-surface LGR5 protein was generated by ligating amino acids 22-564 of LGR5 to an N-terminal FLAG tag and to the transmembrane domain of CD4 using standard recombinant DNA techniques (FLAG-LGR5-CD4TM). HEK 293 cells were transiently transfected with FLAG-LGR5-CD4TM and GFP. After 48 hours, cells were suspended in ice cold PBS containing 2% FCS and heparin and then incubated on ice in the presence of RSPO1-Fc, FZD8-Fc, or a FLAG antibody as a positive control.

Consider B1, for which the binding result in the assay with RSPO1-CD4TM is “no binding”.

As for B2, the binding result in the assay with FZD1-Fc, with FZD2-Fc and in the assay with FZD7-Fc was “no binding” each time.

On to B3, for which the binding result with RSPO1-CD4TM is given as “no binding”.

For B4, the binding result in the assay with RSPO1-CD4TM is “no binding”.

On to B5, for which the binding result with RSPO1-CD4TM is listed as “no binding”.

Take B6: in the assay with RSPO1-CD4TM, the binding result was “no binding”.

Consider B7, for which, in the assay with RSPO1-CD4TM, the binding result was “no binding”.

For the molecule B8, the binding result with RSPO1-CD4TM and in the assay with FLAG-LGR5-CD4TM was “no binding” each time.
